Experimental data taken from paper PMC8615163.

Assays:
[1] = biological target: HIS-tagged integrin αvβ5 (ACRO Biosystems IT5-H52W5) (UniProt P06756); test: radioligand binding; 125I-labeled NP-011 (0–100 μg/mL) incubated in plates coated with HIS-tagged integrin; 50 mM Tris, 5 mM MgCl2, 100 mM NaCl, 1% BSA, pH 7.4; Kd by nonlinear curve fitting (Prism); done by Gifford Bioscience
[2] = biological target: HIS-tagged integrin αvβ3 (ACRO Biosystems IT3-H52E3) (UniProt P06756); test: as above
[3] = biological target: HIS-tagged integrin αvβ5 (ACRO Biosystems IT5-H52W5) (UniProt P06756); test: radioligand binding; binding affinity assay of MFG-E8 to integrin αVβ5 (Supplementary Figure S2); told with the radioligand binding assays, its own methods not shown

Kd [1] [nM]	Kd [2] [nM]	Kd [3] [nM]	Molecule
2	50.4		NP-011 (truncated form of MFG-E8, EGF + C1 domain) (from UniProt Q08431 24-387) (domain or fragment)
		25.4	Milk fat globule-EGF factor 8 (MFG-E8) (natural protein) LDICSKNPCHNGGLCEEISQEVRGDVFPSYTCTCLKGYAGNHCETKCVEPLGLENGNIANSQIAASSVRVTFLGLQHWVPELARLNRAGMVNAWTPSSNDDNPWIQVNLLRRMWVTGVVTQGASRLASHEYLKAFKVAYSLNGHEFDFIHDVNKKHKEFVGNWNKNAVHVNLFETPVEAQYVRLYPTSCHTACTLRFELLGCELNGCANPLGLKNNSIPDKQITASSSYKTWGLHLFSWNPSYARLDKQGNFNAWVAGSYGNDQWLQVDLGSSKEVTGIITQGARNFGSVQFVASYKVAYSNDSANWTEYQDPRTGSSKIFPGNWDNHSHKKNLFETPILARYVRILPVAWHNRIALRLELLGC
